Assay results as given in patent US20230265151A1, “GIP/GLP1 CO-AGONIST COMPOUNDS” (priority 2020, published 2023).
Substitutions are numbered along the chain they refer to.

T1: human GIP receptor (human, UniProt P48546 22-466)
T1 construct: whole, on cells; also called hGIPR; human glucose-dependent insulinotropic polypeptide receptor
T1 sequence (looked up): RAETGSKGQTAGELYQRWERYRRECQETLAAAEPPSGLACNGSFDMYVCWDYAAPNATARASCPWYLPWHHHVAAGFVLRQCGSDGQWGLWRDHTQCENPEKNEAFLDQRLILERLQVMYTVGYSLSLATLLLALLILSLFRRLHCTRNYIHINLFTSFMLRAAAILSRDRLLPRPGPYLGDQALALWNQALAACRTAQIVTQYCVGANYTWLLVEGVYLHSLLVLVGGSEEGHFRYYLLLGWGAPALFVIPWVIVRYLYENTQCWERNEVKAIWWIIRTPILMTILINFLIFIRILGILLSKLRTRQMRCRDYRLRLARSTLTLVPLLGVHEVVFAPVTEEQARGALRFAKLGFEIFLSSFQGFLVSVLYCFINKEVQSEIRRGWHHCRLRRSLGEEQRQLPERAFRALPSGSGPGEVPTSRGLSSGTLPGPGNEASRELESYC

B1: Y-Aib-EGT-αMeF(2F)-TSD-4Pal-Aib-I-αMeL-LD-Orn-K(((2-[2-(2-Amino-ethoxy)-ethoxy]-acetyl)-Aoc-CO-(CH2)12-CO2H)AQ-Aib-EFI-(D-Glu)-αMeY-LIK(((2-[2-(2-Amino-ethoxy)- … (peptide)
peptide: YXEGTXTSDXXIXLDXKAQXEFIXXLIKGGPSSGAPPPS
modifications: Aib2, αMeF(2F)6, 4Pal10, Aib11, αMeL13, Orn16, K17(Z1), Aib20, D-Glu24, αMeY25, K28(Z1), C-term NH2; Z1=AEEA-Aoc-CO-(CH2)12-CO2H
B2: Y-Aib-EGT-αMeF(2F)-TSD-4Pal-Aib-I-αMeL-LD-Orn-QAQ-Aib-Orn-FIK((2-[2-(2-Amino-ethoxy)-ethoxy]-acetyl)3-(γ-Glu)--(10-(4-carboxyphenoxy)decanoyl))-αMeY-LIK((2-[2-( … (peptide)
peptide: B1 peptide with K17Q, E21X, X24K
modifications: Aib2, αMeF(2F)6, 4Pal10, Aib11, αMeL13, Orn16, Aib20, Orn21, K24(Z1), αMeY25, K28(Z1), C-term NH2; Z1=AEEA3-(γ-Glu)-(10-(4-carboxyphenoxy)decanoyl)
B3: Y-Aib-EGT-αMeF(2F)-TSD-4Pal-Aib-I-αMeL-LD-Orn-QAQ-Aib-Orn-FIK(PEG6-(γ-Glu)-CO-(CH2)12-CO2H)-αMeY-LIK(PEG6-(γ-Glu)-CO-(CH2)12-CO2H)GGPSSGAPPPS-NH2 (peptide)
peptide: B1 peptide with K17Q, E21X, X24K
modifications: Aib2, αMeF(2F)6, 4Pal10, Aib11, αMeL13, Orn16, Aib20, Orn21, K24(Z1), αMeY25, K28(Z1), C-term NH2; Z1=PEG6-(γ-Glu)-CO-(CH2)12-CO2H
B4: Y-Aib-EGT-αMeF(2F)-TSD-4Pal-Aib-I-αMeL-LD-Orn-QAQ-Aib-Orn-FIK(PEG6-(γ-Glu)-(10-(4-carboxyphenoxy)decanoyl))-αMeY-LIK(PEG6-(γ-Glu)-(10-(4-carboxyphenoxy)decanoyl … (peptide)
peptide: B1 peptide with K17Q, E21X, X24K
modifications: Aib2, αMeF(2F)6, 4Pal10, Aib11, αMeL13, Orn16, Aib20, Orn21, K24(Z1), αMeY25, K28(Z1), C-term NH2; Z1=PEG6-(γ-Glu)-(10-(4-carboxyphenoxy)decanoyl)
B5: Y-Aib-EGT-αMeF(2F)-TSD-4Pal-Aib-I-αMeL-LD-Orn-QAQ-Aib-Orn-FIK(Ahx-(2-[2-(2-Amino-ethoxy)-ethoxy]-acetyl)-(γ-Glu)-CO-(CH2)12-CO2)-αMeY-LIK(Ahx-(2-[2-(2-Amino-eth … (peptide)
peptide: B1 peptide with K17Q, E21X, X24K
modifications: Aib2, αMeF(2F)6, 4Pal10, Aib11, αMeL13, Orn16, Aib20, Orn21, K24(Z1), αMeY25, K28(Z1), C-term NH2; Z1=Ahx-AEEA-(γ-Glu)-CO-(CH2)12-CO2 (so in the source)
B6: Y-Aib-EGT-αMeF(2F)-TSD-4Pal-Aib-I-αMeL-LD-Orn-QAQ-Aib-Orn-FIK((2-[2-(2-Amino-ethoxy)-ethoxy]-acetyl)-Ahx-(γ-Glu)-(10-(4-carboxyphenoxy)decanoyl))-αMeY-LIK((2-[2 … (peptide)
peptide: B1 peptide with K17Q, E21X, X24K
modifications: Aib2, αMeF(2F)6, 4Pal10, Aib11, αMeL13, Orn16, Aib20, Orn21, K24(Z1), αMeY25, K28(Z1), C-term NH2; Z1=AEEA-Ahx-(γ-Glu)-(10-(4-carboxyphenoxy)decanoyl)
B7: Y-Aib-EGT-αMeF(2F)-TSD-4Pal-Aib-I-αMeL-LD-Orn-QAQ-Aib-Orn-FIK(((2-[2-(2-Amino-ethoxy)-ethoxy]-acetyl)2--Trx-(γ-Glu)-CO-(CH2)12-CO2H)-αMeY-LIK(((2-[2-(2-Amino-et … (peptide)
peptide: B1 peptide with K17Q, E21X, X24K
modifications: Aib2, αMeF(2F)6, 4Pal10, Aib11, αMeL13, Orn16, Aib20, Orn21, K24(Z1), αMeY25, K28(Z1), C-term NH2; Z1=AEEA2-Trx-(γ-Glu)-CO-(CH2)12-CO2H
B8: Y-Aib-EGT-αMeF(2F)-TSD-4Pal-Aib-I-αMeL-LD-Orn-QAQ-Aib-Orn-FIK(PEG4-(γ-Glu)-(10-(4-carboxyphenoxy)decanoyl))-αMeY-LIK(PEG4-(γ-Glu)-(10-(4-carboxyphenoxy)decanoyl … (peptide)
peptide: B1 peptide with K17Q, E21X, X24K
modifications: Aib2, αMeF(2F)6, 4Pal10, Aib11, αMeL13, Orn16, Aib20, Orn21, K24(Z1), αMeY25, K28(Z1), C-term NH2; Z1=PEG4-(γ-Glu)-(10-(4-carboxyphenoxy)decanoyl)
B9: Y-Aib-EGT-αMeF(2F)-TSD-4Pal-Aib-I-αMeL-LD-Orn-QAQ-Aib-Orn-FIK((2-[2-(2-Amino-ethoxy)-ethoxy]-acetyl)2-(γ-Glu)2-CO-(CH2)12-CO2H)-αMeY-LIK((2-[2-(2-Amino-ethoxy)- … (peptide)
peptide: B1 peptide with K17Q, E21X, X24K
modifications: Aib2, αMeF(2F)6, 4Pal10, Aib11, αMeL13, Orn16, Aib20, Orn21, K24(Z1), αMeY25, K28(Z1), C-term NH2; Z1=AEEA2-(γ-Glu)2-CO-(CH2)12-CO2H
B10: Y-Aib-EGT-αMeF(2F)-TSD-4Pal-Aib-I-αMeL-LD-Orn-QAQ-Aib-Orn-FIK((2-[2-(2-Amino-ethoxy)-ethoxy]-acetyl)-Ahx-(γ-Glu)-CO-(CH2)12-CO2)-αMeY-LIK((2-[2-(2-Amino-ethoxy) … (peptide)
peptide: B1 peptide with K17Q, E21X, X24K
modifications: Aib2, αMeF(2F)6, 4Pal10, Aib11, αMeL13, Orn16, Aib20, Orn21, K24(Z1), αMeY25, K28(Z1), C-term NH2; Z1=AEEA-Ahx-(γ-Glu)-CO-(CH2)12-CO2 (so in the source)
B11: Y-Aib-EGT-αMeF(2F)-TSD-4Pal-Aib-I-αMeL-LD-Orn-QAQ-Aib-Orn-FIK(((2-[2-(2-Amino-ethoxy)-ethoxy]-acetyl)-Trx-(γ-Glu)-(10-(4-carboxyphenoxy)decanoyl))-αMeY-LIK(((2- … (peptide)
peptide: B1 peptide with K17Q, E21X, X24K
modifications: Aib2, αMeF(2F)6, 4Pal10, Aib11, αMeL13, Orn16, Aib20, Orn21, K24(Z1), αMeY25, K28(Z1), C-term NH2; Z1=AEEA-Trx-(γ-Glu)-(10-(4-carboxyphenoxy)decanoyl)
B12: Y-Aib-EGT-αMeF(2F)-TSD-4Pal-Aib-I-αMeL-LD-Orn-QAQ-Aib-Orn-FIK(PEG4-(γ-Glu)-CO-(CH2)12-CO2H)-αMeY-LIK(PEG4-(γ-Glu)-CO-(CH2)12-CO2H)GGPSSGAPPPS-NH2 (peptide)
peptide: B1 peptide with K17Q, E21X, X24K
modifications: Aib2, αMeF(2F)6, 4Pal10, Aib11, αMeL13, Orn16, Aib20, Orn21, K24(Z1), αMeY25, K28(Z1), C-term NH2; Z1=PEG4-(γ-Glu)-CO-(CH2)12-CO2H
B13: Y-Aib-EGT-αMeF(2F)-TSD-4Pal-Aib-I-αMeL-LD-Orn-QAQ-Aib-Orn-FIK((γ-Glu)-(2-[2-(2-Amino-ethoxy)-ethoxy]-acetyl)2-(γ-Glu)-CO-(CH2)12-CO2H)-αMeY-LIK((γ-Glu)-(2-[2-(2 … (peptide)
peptide: B1 peptide with K17Q, E21X, X24K
modifications: Aib2, αMeF(2F)6, 4Pal10, Aib11, αMeL13, Orn16, Aib20, Orn21, K24(Z1), αMeY25, K28(Z1), C-term NH2; Z1=(γ-Glu)-AEEA2-(γ-Glu)-CO-(CH2)12-CO2H
B14: Y-Aib-EGT-αMeF(2F)-TSD-4Pal-Aib-I-αMeL-LD-Orn-QAQ-Aib-Orn-FIK(((2-[2-(2-Amino-ethoxy)-ethoxy]-acetyl)-Trx-(γ-Glu)-CO-(CH2)12-CO2H)-αMeY-LIK(((2-[2-(2-Amino-etho … (peptide)
peptide: B1 peptide with K17Q, E21X, X24K
modifications: Aib2, αMeF(2F)6, 4Pal10, Aib11, αMeL13, Orn16, Aib20, Orn21, K24(Z1), αMeY25, K28(Z1), C-term NH2; Z1=AEEA-Trx-(γ-Glu)-CO-(CH2)12-CO2H
B15: Y-Aib-EGT-αMeF(2F)-TSD-4Pal-Aib-I-αMeL-LD-Orn-QAQ-Aib-Orn-FIK(PEG5-(γ-Glu)-(10-(4-carboxyphenoxy)decanoyl))-αMeY-LIK(PEG5-(γ-Glu)-(10-(4-carboxyphenoxy)decanoyl … (peptide)
peptide: B1 peptide with K17Q, E21X, X24K
modifications: Aib2, αMeF(2F)6, 4Pal10, Aib11, αMeL13, Orn16, Aib20, Orn21, K24(Z1), αMeY25, K28(Z1), C-term NH2; Z1=PEG5-(γ-Glu)-(10-(4-carboxyphenoxy)decanoyl)
B16: Y-Aib-EGT-αMeF(2F)-TSD-4Pal-Aib-I-αMeL-LD-Orn-QAQ-Aib-Orn-FIK(Ahx-(2-[2-(2-Amino-ethoxy)-ethoxy]-acetyl)-(γ-Glu)-(10-(4-carboxyphenoxy)decanoyl))-αMeY-LIK(Ahx-( … (peptide)
peptide: B1 peptide with K17Q, E21X, X24K
modifications: Aib2, αMeF(2F)6, 4Pal10, Aib11, αMeL13, Orn16, Aib20, Orn21, K24(Z1), αMeY25, K28(Z1), C-term NH2; Z1=Ahx-AEEA-(γ-Glu)-(10-(4-carboxyphenoxy)decanoyl)
B17: Y-Aib-EGT-αMeF(2F)-TSD-4Pal-Aib-I-αMeL-LD-Orn-QAQ-Aib-EFIK((2-[2-(2-Amino-ethoxy)-ethoxy]-acetyl)3-(γ-Glu)-(10-(4-carboxyphenoxy)decanoyl)-αMeY-LIK((2-[2-(2-Ami … (peptide)
peptide: B1 peptide with K17Q, X24K
modifications: Aib2, αMeF(2F)6, 4Pal10, Aib11, αMeL13, Orn16, Aib20, K24(Z1), αMeY25, K28(Z1), C-term NH2; Z1=AEEA3-(γ-Glu)-(10-(4-carboxyphenoxy)decanoyl)

Target: T1, human GIP receptor
Experiment: SPA competition vs [125I]-GIP, hGIPR membranes

| Binder | Ki [nM] |
| --- | --- |
| B1 | 0.0464 |
| B2 | 0.0279 |
| B3 | 0.0199 |
| B4 | 0.0291 |
| B5 | 0.0239 |
| B6 | 0.013 |
| B7 | 0.0346 |
| B8 | 0.01 |
| B9 | 0.0427 |
| B10 | 0.0133 |
| B11 | 0.0319 |
| B12 | 0.0419 |
| B13 | 0.0277 |
| B14 | 0.0376 |
| B15 | 0.0387 |
| B16 | 0.0143 |
| B17 | 0.0261 |

Target: T2, human glucagon receptor (human, UniProt P47871 26-477)
T2 construct: whole, on cells; also called hGCGR; hGcgR
Experiment: SPA competition vs [125I]-Gcg, hGcgR membranes

T2 sequence (P47871 26-477): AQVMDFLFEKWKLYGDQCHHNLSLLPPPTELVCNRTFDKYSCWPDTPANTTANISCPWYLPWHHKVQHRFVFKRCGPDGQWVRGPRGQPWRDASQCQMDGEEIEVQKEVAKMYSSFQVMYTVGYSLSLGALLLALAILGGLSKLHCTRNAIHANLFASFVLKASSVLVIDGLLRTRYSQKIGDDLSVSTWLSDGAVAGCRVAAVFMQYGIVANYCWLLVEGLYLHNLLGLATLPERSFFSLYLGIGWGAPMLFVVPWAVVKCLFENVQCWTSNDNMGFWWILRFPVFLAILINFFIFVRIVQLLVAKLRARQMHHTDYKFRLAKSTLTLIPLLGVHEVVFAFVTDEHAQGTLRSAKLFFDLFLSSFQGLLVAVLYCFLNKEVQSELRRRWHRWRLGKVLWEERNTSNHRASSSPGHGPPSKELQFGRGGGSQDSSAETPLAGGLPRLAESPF

| Binder | Ki [nM] |
| --- | --- |
| B1 | 304 |
| B2 | 268 |
| B3 | 342 |
| B4 | 269 |
| B5 | 258 |
| B6 | 71.8 |
| B7 | 945 |
| B8 | 101 |
| B9 | 382 |
| B10 | 243 |
| B11 | 162 |
| B12 | 351 |
| B13 | 273 |
| B14 | 258 |
| B15 | 144 |
| B16 | 60.1 |
| B17 | 753 |

Target: T3, human GLP-1 receptor (human, UniProt P43220 24-463)
T3 construct: whole, on cells; also called hGLP-1R; human glucagon-like peptide-1 receptor
Experiment: SPA competition vs [125I]-GLP-1, hGLP-1R membranes
In short: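 Kᵢ values are geometric means (SEM) over replicates run on separate days, derived from IC₅₀ of four-parameter curve fits. Buffer: HEPES 25 mM pH 7.4 with CaCl₂ 2.5 mM, MgCl₂ 1 mM, bacitracin 0.1%, TWEEN-20 0.003%, EDTA-free protease inhibitors.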

| Binder | Ki [nM] |
| --- | --- |
| B1 | 1.29 |
| B2 | 0.143 |
| B3 | 0.2 |
| B4 | 0.0943 |
| B5 | 0.234 |
| B6 | 0.123 |
| B7 | 0.121 |
| B8 | 0.14 |
| B9 | 0.343 |
| B10 | 0.201 |
| B11 | 0.169 |
| B12 | 0.252 |
| B13 | 0.254 |
| B14 | 0.254 |
| B15 | 0.0847 |
| B16 | 0.243 |
| B17 | 0.352 |
